The target in data set [1] is ARF3, purified from E. coli, preloaded with BODIPY FL GDP (UniProt P61204).
Sequence of ARF3, purified from E. coli, preloaded with BODIPY FL GDP (P61204 whole entry): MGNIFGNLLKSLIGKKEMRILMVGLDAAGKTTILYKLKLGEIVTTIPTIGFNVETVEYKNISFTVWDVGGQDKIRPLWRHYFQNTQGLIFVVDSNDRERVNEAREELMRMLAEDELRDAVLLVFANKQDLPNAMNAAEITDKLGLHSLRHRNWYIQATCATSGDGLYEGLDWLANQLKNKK

On to “C9ORF72 isoform A, 2x HA-tagged, in HEK cell lysate”, for which the “guanine exchange activity (BODIPY-GDP fluorescence)” value in data set [1] was “C9ORF72 isoforms A and B stimulated guanine exchange on ARF3”; with the other GTPases tested, “Significant activity was not observed using both C9ORF72 isoforms on the other GTPases tested”.

The values are drawn from US20180161335.
